“And” between values parts separate entries of the source, which are not always exact repeats. Equal entries are not always repeated.

This note sets out measurements from patent US20230310628A1, “Multi-Targeted Multi-Valent Ligand Drug Particles for the Treatment and Prevention of Diseases and Conditions” (priority 2017, published 2023).

The target of assay [1] is human epidermal growth factor receptor 2 (HER2) (human) (UniProt P04626). Kind of assay: dose-uptake, fluorometry of lysed cells, 37 °C, 4 hr; MKN-7 cells; 15 F5 scFv per liposome.
The target of assay [2] is epidermal growth factor receptor (EGFR) (human) (UniProt P00533). Kind of assay: dose-uptake, fluorometry of lysed cells, 37 °C, 4 hr; MDA-468 cells (EGFR overexpressed, negligible HER2); 5 F5 scFv per liposome; no significant uptake compared to non-targeted liposomes.
The target in assay [3] is human epidermal growth factor receptor 2 (HER2) (human) (UniProt P04626). As to the kind of experiment: dose-uptake, fluorometry of lysed cells; SK-BR-3 cells; 10 F5 scFv per liposome.
Assay [4] concerns the target epidermal growth factor receptor (EGFR) (human) (UniProt P00533). As to the kind of experiment: dose-uptake, fluorometry of lysed cells, 37 °C, 4 hr; MDA-468 cells (EGFR overexpressed, negligible HER2); 15 F5 scFv per liposome; no significant uptake compared to non-targeted liposomes.
Assay [5] addresses human epidermal growth factor receptor 2 (HER2) (human) (UniProt P04626). As to the kind of experiment: flow cytometry (MFI) of DiD-labelled liposomes, 75 µM PL, 37 °C, 4 hr; MKN-7 cells (moderate HER2 and EGFR). (A flow cytometer gives signals particle by particle.)
For assay [6] the target is unchanged. Kind of assay: dose-uptake, fluorometry of lysed cells, 37 °C, 4 hr; SK-BR-3 cells; plateau at ˜200 µM PL.
The target is the same in assay [7]. Kind of assay: dose-uptake, fluorometry of lysed cells, 37 °C, 4 hr; BT-474 cells; 15 F5 scFv per liposome.
Assay [8] has the same target. Kind of assay: dose-uptake, fluorometry of lysed cells, 37 °C, 4 hr; MKN-7 cells; 5 F5 scFv per liposome.
Assay [9] has the same target. As to the kind of experiment: dose-uptake, fluorometry of lysed cells; SK-BR-3 cells; 15 F5 scFv per liposome.
The target is the same in assay [10]. As to the kind of experiment: dose-uptake, fluorometry of lysed cells, 37 °C, 4 hr; BT-474 cells; 5 F5 scFv per liposome.
Assay [11] has the same target. As to the kind of experiment: dose-uptake, fluorometry of lysed cells, 37 °C, 4 hr; MKN-7 cells.
Assay [12] shares this target. As to the kind of experiment: flow cytometry (MFI) of DiD-labelled liposomes, 75 µM PL, 37 °C, 4 hr; BT-474 cells; mono-targeted counterpart with 5 F5 scFv per liposome.
Assay [13] has the same target. As to the kind of experiment: dose-uptake, fluorometry of lysed cells, 37 °C, 4 hr; BT-474 cells; 10 F5 scFv per liposome.
Assay [14] has as its target epidermal growth factor receptor (EGFR) (human) (UniProt P00533). As to the kind of experiment: dose-uptake, fluorometry of lysed cells, 37 °C, 4 hr; MDA-468 cells (EGFR overexpressed, negligible HER2); 10 F5 scFv per liposome; no significant uptake compared to non-targeted liposomes.
Assay [15] has as its target human epidermal growth factor receptor 2 (HER2) (human) (UniProt P04626). As to the kind of experiment: dose-uptake, fluorometry of lysed cells, 37 °C, 4 hr; MKN-7 cells; 10 F5 scFv per liposome.
For assay [16], the target named is epidermal growth factor receptor (EGFR) (human) (UniProt P00533). As to the kind of experiment: dose-uptake, fluorometry of lysed cells, 37 °C, 4 hr; MDA-468 cells (EGFR overexpressed, negligible HER2); 10 cetuximab-Fab′ and 5 F5 scFv per liposome.
Assay [17] has the same target. As to the kind of experiment: dose-uptake, fluorometry of lysed cells, 37 °C, 4 hr; MDA-468 cells (EGFR overexpressed, negligible HER2); 20 cetuximab-Fab′ and 10 F5 scFv per liposome.
Assay [18] shares this target. Kind of assay: flow cytometry (MFI) of DiD-labelled liposomes, 75 µM PL, 37 °C, 4 hr; MDA-468 cells (EGFR overexpressed, negligible HER2).
Assay [19] shares this target. As to the kind of experiment: dose-uptake, fluorometry of lysed cells, 37 °C, 4 hr; MDA-468 cells (EGFR overexpressed, negligible HER2); 20 cetuximab-Fab′ and 15 F5 scFv per liposome.
The target is the same in assay [20]. Kind of assay: dose-uptake, fluorometry of lysed cells, 37 °C, 4 hr; MDA-468 cells (EGFR overexpressed, negligible HER2); 20 cetuximab-Fab′ and 5 F5 scFv per liposome.
Assay [21] deals with human epidermal growth factor receptor 2 (HER2) (human) (UniProt P04626). As to the kind of experiment: dose-uptake, fluorometry of lysed cells, 37 °C, 4 hr; SK-BR-3 cells (HER2 overexpressed, negligible EGFR).
Assay [22] concerns the target epidermal growth factor receptor (EGFR) (human) (UniProt P00533). Kind of assay: dose-uptake, fluorometry of lysed cells, 37 °C, 4 hr; MDA-468 cells (EGFR overexpressed, negligible HER2); 10 cetuximab-Fab′ and 10 F5 scFv per liposome.

Turning to “anti-HER2 F5 scFv-conjugated immunoliposomes”, the LS/Cell Max (liposomes per cell) (liposomes/cell) in assay [1] worked out at 4100; in assay [2] it was 5300; in assay [4] it was 8000; in assay [7], 68000; in assay [8], 8100; in assay [10] it was 40000. Further, the LS/Cell Max (liposomes per cell) (liposomes/cell) was 72000 in [13], 1100 in [14] and 4900 in assay [15]. The observed cellular uptake (liposomes per cell) (liposomes/cell) in [3] and in assay [9] was 230000 throughout. The fold binding over non-targeted liposomes (NT) worked out at 300 fold in [5] and 200 fold in [12]. Further, the F5 scFv per cell at the plateau in assay [6] turned out to be 3e+06 ligands/cell. Also, the liposomes per cell at the plateau (liposomes/cell) in assay [6] is 200000 and 300000. Also, the liposomes per cell (liposomes/cell) in assay [11] was below 20000.

For the substance “anti-HER2 and anti-EGFR dual-targeted immunoliposomes”, the Anti-EGFR Lg/Cell Max (ligands per cell) is 270000 ligands/cell in assay [16]; 1.1e+06 ligands/cell in assay [17]; 1.2e+06 ligands/cell in assay [19]; 1.2e+06 ligands/cell in assay [20]; 220000 ligands/cell in assay [22]. In addition, the LS/Cell Max (liposomes per cell) (liposomes/cell) amounted to 27000 in assay [16]; 53000 in assay [17]; 59000 in [19]; 61000 in assay [20]; 22000 in assay [22]. The same substance gave a fold binding over non-targeted liposomes (NT) in assay [18] of 500 fold. Besides, the F5 scFv per cell in assay [21] was 2e+06 ligands/cell and 3e+06 ligands/cell.
